Assay results taken from patent publication US20160264649A1.

Assays:
Test in all cases: cell-based or functional assay
[1] = target: HIV-1 Env of isolate 6535.3 (HIV-1)
[2] = target: HIV-1 Env of isolate 92 BR 020 (HIV-1)
[3] = target: HIV-1 Env of isolate 93IN905 (HIV-1)
[4] = target: HIV-1 Env of isolate 93MW959 (HIV-1)
[5] = target: HIV-1 Env of isolate 93TH305 (HIV-1)
[6] = target: HIV-1 Env of isolate 97ZA012 (HIV-1)
[7] = target: HIV-1 Env of isolate 98IN022 (HIV-1)
[8] = target: HIV-1 Env of isolate APV_13 (HIV-1)
[9] = target: HIV-1 Env of isolate APV_17 (HIV-1)
[10] = target: HIV-1 Env of isolate APV_6 (HIV-1)
[11] = target: HIV-1 Env of isolate CAAN.A2 (HIV-1)
[12] = target: HIV-1 Env of isolate JRCSF (HIV-1) (UniProt P20871)
[13] = target: HIV-1 Env of isolate JRFL (HIV-1)
[14] = target: HIV-1 Env of isolate MG RM-C-020 (HIV-1)
[15] = target: HIV-1 Env of isolate MG RM-C-022 (HIV-1)
[16] = target: HIV-1 Env of isolate MG RM-C-023 (HIV-1)
[17] = target: HIV-1 Env of isolate MG RM-C-024 (HIV-1)
[18] = target: HIV-1 Env of isolate MG RM-C-025 (HIV-1)
[19] = target: HIV-1 Env of isolate MG RM-C-026 (HIV-1)
[20] = target: HIV-1 Env of isolate MG RM-C-027 (HIV-1)
[21] = target: HIV-1 Env of isolate MG RM-C-028 (HIV-1)
[22] = target: HIV-1 Env of isolate MGRM-Chronic-B-001 (HIV-1)
[23] = target: HIV-1 Env of isolate MGRM-Chronic-B-002 (HIV-1)
[24] = target: HIV-1 Env of isolate MGRM-Chronic-B-003 (HIV-1)
[25] = target: HIV-1 Env of isolate MGRM-Chronic-B-004 (HIV-1)
[26] = target: HIV-1 Env of isolate MGRM-Chronic-B-008 (HIV-1)
[27] = target: HIV-1 Env of isolate MGRM-Chronic-B-010 (HIV-1)
[28] = target: HIV-1 Env of isolate MGRM-Chronic-B-011 (HIV-1)
[29] = target: HIV-1 Env of isolate MGRM-Chronic-B-012 (HIV-1)
[30] = target: HIV-1 Env of isolate MGRM-Chronic-B-017 (HIV-1)
[31] = target: HIV-1 Env of isolate MGRM-Chronic-B-018 (HIV-1)
[32] = target: HIV-1 Env of isolate MGRM-Chronic-B-020 (HIV-1)
[33] = target: HIV-1 Env of isolate MGRM-Chronic-B-023 (HIV-1)
[34] = target: HIV-1 Env of isolate MGRM-Chronic-B-024 (HIV-1)
[35] = target: HIV-1 Env of isolate NL43 (HIV-1)
[36] = target: HIV-1 Env of isolate PVO.4 (HIV-1)
[37] = target: HIV-1 Env of isolate QH0692.42 (HIV-1)
[38] = target: HIV-1 Env of isolate SC422661.8 (HIV-1)
[39] = target: HIV-1 Env of isolate SF162 (HIV-1) (UniProt P19550)
[40] = target: HIV-1 Env of isolate THR0.18 (HIV-1)
[41] = target: HIV-1 Env of isolate TRJ04551.58 (HIV-1)
[42] = target: HIV-1 Env of isolate TRO.11 (HIV-1)
[43] = target: HIV-1 Env of isolate VLGCB3 (HIV-1)

PGT-125 monoclonal antibody (5123_A06)
neutralization IC50 [1]: 0.01 µg/mL | neutralization IC50 [2]: 0.016 µg/mL | neutralization IC50 [3]: 0.009 µg/mL | neutralization IC50 [4]: 37.5 µg/mL | neutralization IC50 [5]: 0.008 µg/mL | neutralization IC50 [6]: 2.46 µg/mL | neutralization IC50 [7]: 22.1 µg/mL | neutralization IC50 [8]: 0.007 µg/mL | neutralization IC50 [9]: 8.06 µg/mL | neutralization IC50 [10]: 0.021 µg/mL | neutralization IC50 [11]: 5.47 µg/mL | neutralization IC50 [12]: 0.004 µg/mL | neutralization IC50 [13]: 0.009 µg/mL | neutralization IC50 [14]: > 50 µg/mL | neutralization IC50 [15]: 1.23 µg/mL | neutralization IC50 [16]: 1.31 µg/mL | neutralization IC50 [17]: > 50 µg/mL | neutralization IC50 [18]: 42.5 µg/mL | neutralization IC50 [19]: 0.005 µg/mL | neutralization IC50 [20]: > 50 µg/mL | neutralization IC50 [21]: 14 µg/mL | neutralization IC50 [22]: > 50 µg/mL | neutralization IC50 [23]: 0.064 µg/mL | neutralization IC50 [24]: 0.157 µg/mL | neutralization IC50 [25]: 0.007 µg/mL | neutralization IC50 [26]: > 50 µg/mL | neutralization IC50 [27]: 0.006 µg/mL | neutralization IC50 [28]: 3.23 µg/mL | neutralization IC50 [29]: 0.036 µg/mL | neutralization IC50 [30]: > 50 µg/mL | neutralization IC50 [31]: > 50 µg/mL | neutralization IC50 [32]: 0.087 µg/mL | neutralization IC50 [33]: > 50 µg/mL | neutralization IC50 [34]: > 50 µg/mL | neutralization IC50 [35]: > 50 µg/mL | neutralization IC50 [36]: 0.042 µg/mL | neutralization IC50 [37]: 0.048 µg/mL | neutralization IC50 [38]: 30.1 µg/mL | neutralization IC50 [39]: 0.004 µg/mL | neutralization IC50 [40]: > 50 µg/mL | neutralization IC50 [41]: 0.019 µg/mL | neutralization IC50 [42]: 0.111 µg/mL | neutralization IC50 [43]: 0.015 µg/mL

PGT-126 monoclonal antibody (5141_B17)
neutralization IC50 [1]: 0.022 µg/mL | neutralization IC50 [2]: 0.015 µg/mL | neutralization IC50 [3]: 0.015 µg/mL | neutralization IC50 [4]: 9.44 µg/mL | neutralization IC50 [5]: 0.013 µg/mL | neutralization IC50 [6]: 0.042 µg/mL | neutralization IC50 [7]: 0.279 µg/mL | neutralization IC50 [8]: 0.012 µg/mL | neutralization IC50 [9]: 0.353 µg/mL | neutralization IC50 [10]: 0.007 µg/mL | neutralization IC50 [11]: 0.273 µg/mL | neutralization IC50 [12]: 0.008 µg/mL | neutralization IC50 [13]: 0.014 µg/mL | neutralization IC50 [14]: > 50 µg/mL | neutralization IC50 [15]: 0.96 µg/mL | neutralization IC50 [16]: 0.065 µg/mL | neutralization IC50 [17]: > 50 µg/mL | neutralization IC50 [18]: 0.786 µg/mL | neutralization IC50 [19]: 0.007 µg/mL | neutralization IC50 [20]: 15.6 µg/mL | neutralization IC50 [21]: 0.196 µg/mL | neutralization IC50 [22]: > 50 µg/mL | neutralization IC50 [23]: 0.078 µg/mL | neutralization IC50 [24]: 0.041 µg/mL | neutralization IC50 [25]: 0.01 µg/mL | neutralization IC50 [26]: 5.89 µg/mL | neutralization IC50 [27]: 0.005 µg/mL | neutralization IC50 [28]: 0.108 µg/mL | neutralization IC50 [29]: 0.027 µg/mL | neutralization IC50 [30]: > 50 µg/mL | neutralization IC50 [31]: 0.052 µg/mL | neutralization IC50 [32]: 0.021 µg/mL | neutralization IC50 [33]: > 50 µg/mL | neutralization IC50 [34]: > 50 µg/mL | neutralization IC50 [35]: > 50 µg/mL | neutralization IC50 [36]: 0.017 µg/mL | neutralization IC50 [37]: 0.048 µg/mL | neutralization IC50 [38]: 0.119 µg/mL | neutralization IC50 [39]: 0.003 µg/mL | neutralization IC50 [40]: > 50 µg/mL | neutralization IC50 [41]: 0.025 µg/mL | neutralization IC50 [42]: 0.041 µg/mL | neutralization IC50 [43]: 0.007 µg/mL

PGT-127 monoclonal antibody (5145_B14)
neutralization IC50 [1]: 0.02 µg/mL | neutralization IC50 [2]: 0.059 µg/mL | neutralization IC50 [3]: 0.024 µg/mL | neutralization IC50 [4]: 6.95 µg/mL | neutralization IC50 [5]: 0.017 µg/mL | neutralization IC50 [6]: > 50 µg/mL | neutralization IC50 [7]: 19.2 µg/mL | neutralization IC50 [8]: 0.026 µg/mL | neutralization IC50 [9]: 10.4 µg/mL | neutralization IC50 [10]: 0.04 µg/mL | neutralization IC50 [11]: 0.371 µg/mL | neutralization IC50 [12]: 0.018 µg/mL | neutralization IC50 [13]: 0.029 µg/mL | neutralization IC50 [14]: > 50 µg/mL | neutralization IC50 [15]: 0.41 µg/mL | neutralization IC50 [16]: 1.08 µg/mL | neutralization IC50 [17]: > 50 µg/mL | neutralization IC50 [18]: > 50 µg/mL | neutralization IC50 [19]: 0.014 µg/mL | neutralization IC50 [20]: > 50 µg/mL | neutralization IC50 [21]: 7.57 µg/mL | neutralization IC50 [22]: > 50 µg/mL | neutralization IC50 [23]: 0.279 µg/mL | neutralization IC50 [24]: 0.12 µg/mL | neutralization IC50 [25]: 0.018 µg/mL | neutralization IC50 [26]: 21.5 µg/mL | neutralization IC50 [27]: 0.019 µg/mL | neutralization IC50 [28]: 0.297 µg/mL | neutralization IC50 [29]: 0.075 µg/mL | neutralization IC50 [30]: > 50 µg/mL | neutralization IC50 [31]: 1.9 µg/mL | neutralization IC50 [32]: 0.05 µg/mL | neutralization IC50 [33]: > 50 µg/mL | neutralization IC50 [34]: > 50 µg/mL | neutralization IC50 [35]: > 50 µg/mL | neutralization IC50 [36]: 0.164 µg/mL | neutralization IC50 [37]: 0.129 µg/mL | neutralization IC50 [38]: 36.7 µg/mL | neutralization IC50 [39]: 0.019 µg/mL | neutralization IC50 [40]: > 50 µg/mL | neutralization IC50 [41]: 0.063 µg/mL | neutralization IC50 [42]: 0.079 µg/mL | neutralization IC50 [43]: 0.022 µg/mL
